Experimental data reported in paper PMC4507534.

Assays:
Assay in all cases: purified protein
Details in all cases: pH and temperature of the kinetic assay not given
purified protein [1] = substrate: COC(=O)C(C)Oc1ccc(Oc2ccc(Cl)cc2Cl)cc1
purified protein [2] = substrate: CCCCOC(=O)[C@@H](C)Oc1ccc(Oc2ccc(C(F)(F)F)cn2)cc1
purified protein [3] = substrate: CCOC(=O)[C@@H](C)Oc1ccc(Oc2cnc3cc(Cl)ccc3n2)cc1
purified protein [4] = substrate: COC(=O)[C@@H](C)Oc1ccc(Oc2ncc(C(F)(F)F)cc2Cl)cc1
purified protein [5] = substrate: CCOC(=O)[C@@H](C)Oc1ccc(Oc2nc3ccc(Cl)cc3o2)cc1
purified protein [6] = substrate: C#CCOC(=O)[C@@H](C)Oc1ccc(Oc2ncc(Cl)cc2F)cc1

B1: FeH (FE-hydrolyzing carboxylesterase) (Rhodococcus sp. JPL-2) (protein)
chain: MSDIHGVCDARFSALREALERNLDSGEDVGASIAVTLDGEPVVDIWGGSMDAGGSRPWERDTITNVWSCSKTVTALAALMLVDRGQLDLDAPVARYWSDFAANGKEGILVRHLLSHTSGVSGWDQPFTMDDLADTTKATELLAAQAPWWEPGTASGYHALNYGHLIGEVVRRVDGRTLTGFIEEEISRPLGADFRLGVARSDYSRVSEVIPPPPLPIDFATLDPASVMVKTFTGPPADATAAWGDGWREAEIGAANGHSNARALARIQSVIACGGRVGGVRLLSADTIDAIFDEQSYGVDLVLGVPVRFGVGFGLPTPESVPFVPEGRICFWGGWGGSQIIVDTERRMTVAYVMNKMGPGLLGSDRSAEYVSAAFAAVP
B1 showed a Km (purified protein [1]) of 410 µM, a kcat (purified protein [1]) of 0.33 s⁻¹ and a kcat/Km (purified protein [1]) of 810 M⁻¹ s⁻¹. It also gave a Km (purified protein [2]) of 360 µM, a kcat (purified protein [2]) of 0.59 s⁻¹ and a kcat/Km (purified protein [2]) of 1650 M⁻¹ s⁻¹. It also gave a Km (purified protein [3]) of 230 µM, a kcat (purified protein [3]) of 0.75 s⁻¹ and a kcat/Km (purified protein [3]) of 3250 M⁻¹ s⁻¹. For the same protein, the Km (purified protein [4]) was 390 µM, the kcat (purified protein [4]) was 0.37 s⁻¹ and the kcat/Km (purified protein [4]) was 940 M⁻¹ s⁻¹. For the same protein, the Km (purified protein [5]) was 200 µM, the kcat (purified protein [5]) was 0.7 s⁻¹ and the kcat/Km (purified protein [5]) was 3520 M⁻¹ s⁻¹. For the same protein, the Km (purified protein [6]) was 290 µM, the kcat (purified protein [6]) was 0.61 s⁻¹ and the kcat/Km (purified protein [6]) was 2090 M⁻¹ s⁻¹.
